Laboratory results published in patent US20230265179A1 (TWIST BIOSCIENCE, published 2023).

T1: CD40L (UniProt P29965 113-261, limits assumed)
T1 construct: SPR analyte
T1 sequence (looked up): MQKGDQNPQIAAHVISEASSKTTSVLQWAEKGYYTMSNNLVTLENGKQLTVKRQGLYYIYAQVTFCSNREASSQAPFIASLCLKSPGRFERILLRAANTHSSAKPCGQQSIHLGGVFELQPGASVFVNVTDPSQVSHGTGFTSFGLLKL

T2: CD40L over-expressed on Expi293 cells (UniProt P29965 1-261, limits assumed)
T2 construct: whole, on cells; also called cytokine over-expressing Expi293 cells
T2 sequence (looked up): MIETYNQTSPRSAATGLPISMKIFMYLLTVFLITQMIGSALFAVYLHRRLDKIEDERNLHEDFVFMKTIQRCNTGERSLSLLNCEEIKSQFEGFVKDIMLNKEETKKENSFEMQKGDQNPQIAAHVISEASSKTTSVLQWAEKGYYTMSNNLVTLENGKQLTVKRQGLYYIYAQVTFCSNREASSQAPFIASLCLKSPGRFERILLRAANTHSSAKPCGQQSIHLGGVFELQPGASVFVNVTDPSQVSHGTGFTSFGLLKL


What was measured:
CD40L = target: T1, CD40L; assay: SPR (Carterra LSA), antibody amine-coupled, 1:1 model
Procedure: SPR experiments were performed on a Carterra LSA SPR biosensor equipped with a HC30M chip at 25° C. in HBS-TE. Antibodies were diluted to 10 μg/mL and amine-coupled to the sensor chip by EDC/NHS activation, followed by ethanolamine HCl quenching. Increasing concentrations of analyte were flowed over the sensor chip in HBS-TE with 0.5 mg/mL BSA with 5-minute association and 15-minute dissociation. Following each injection cycle the surface was regenerated with 2× 30-second injections of IgG elution buffer (Thermo). Data were analyzed in Carterra's Kinetics Tool software with 1:1 binding model.

[1] = target: T2, CD40L over-expressed on Expi293 cells; assay: flow cytometry, 100 nM antibody, CD40L-Expi293 vs parent Expi293 cells;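 note: ratio is the mean fluorescence intensity on CD40L-overexpressing Expi293 cells divided by the mean fluorescence intensity on parental Expi293 cells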
Procedure: All incubations and washes were in buffer containing PBS+1% BSA. MFI Ratio is defined by the mean fluorescence intensity (MFI) of the cytokine over-expressing Expi293 cell over the Expi293 parent cell. […] EC50 was calculated in GraphPad Prism.

Row | Binder | Kd (CD40L) | koff (CD40L) | kon (CD40L) | 100 nM FACS (MFI Ratio) [1]
1 | CD40L-20 (VHH) VHH: EVQLVESGGGLVQPGGSLRLSCAASGVITLDSNAMGWFRQAPGKEREFVAAITWDGGYTRYADSVKGRFTISADNSKNTAYLQMNSLKPEDTAVYYCAAEATFPTWNRGSEADYDWGQGTLVTVSS | 1.25 nM | 0.000271 s⁻¹ | 217000 M⁻¹ s⁻¹ | 24.6 ratio
2 | CD40L-42 (VHH) VHH: EVQLVESGGGLVQPGGSLRLSCAASGSMSSINAMGWFRQAPGKEREFVAVIYSSDGSTLYADSVKGRFTISADNSKNTAYLQMNSLKPEDTAVYYCAAEPYGSGSSLISEYDWGQGTLVTVSS | 2.46 nM | 0.000639 s⁻¹ | 260000 M⁻¹ s⁻¹ | 40 ratio
3 | CD40L-12 (VHH) VHH: EVQLVESGGGLVQPGGSLRLSCAASGRSFSTYTMGWFRQAPGKEREFVAVIYTSDGANLYADSVKGRFTISADNSKNTAYLQMNSLKPEDTAVYYCAAETYGSGSSLMSEYDWGQGTLVTVSS | 1.03 nM | 0.000266 s⁻¹ | 257000 M⁻¹ s⁻¹ | 46.2 ratio
4 | CD40L-6 (VHH) VHH: EVQLVESGGGLVQPGGSLRLSCAASGSIDNIHAMGWFRQAPGKEREFIAVIYWRDGSSLYADSVKGRFTISADNSKNTAYLQMNSLKPEDTAVYYCAAEPYGSGSSLISEYDWGQGTLVTVSS | 0.319 nM | 8.01e-05 s⁻¹ | 251000 M⁻¹ s⁻¹ | 67.4 ratio
5 | CD40L-17 (VHH) VHH: EVQLVESGGGLVQPGGSLRLSCAASGRTSNIYAMGWFRQAPGKEREFVAVIYSSDGSTLYADSVKGRFTISADNSKNTAYLQMNSLKPEDTAVYYCAAEPYGSGSSLMSEYDWGQGTLVTVSS | 2.32 nM | 0.000363 s⁻¹ | 157000 M⁻¹ s⁻¹ | 45.6 ratio
6 | CD40L-18 (VHH) VHH: EVQLVESGGGLVQPGGSLRLSCAASGSISSVNAMGWFRQAPGKEREFIAVIYWRDGSSLYADSVKGRFTISADNSKNTAYLQMNSLKPEDTAVYYCAAEPYGSGSSLISEYDWGQGTLVTVSS | 1.77 nM | 0.000391 s⁻¹ | 221000 M⁻¹ s⁻¹ | 29.8 ratio
7 | CD40L-9 (VHH) VHH: EVQLVESGGGLVQPGGSLRLSCAASGSGLSINAMGWFRQAPGKEREFVAVIYSSDGSTLYADSVKGRFTISADNSKNTAYLQMNSLKPEDTAVYYCAAEPYGSGSSLISEYDWGQGTLVTVSS | 1.13 nM | 0.000284 s⁻¹ | 251000 M⁻¹ s⁻¹ | 21.1 ratio
8 | CD40L-19 (VHH) VHH: EVQLVESGGGLVQPGGSLRLSCAASGTITSAVFMGWFRQAPGKEREWVATISSHGLPVYADSVKGRFTISADNSKNTAYLQMNSLKPEDTAVYYCAIDEGMDYDGNFYDWGQGTLVTVSS | 6.72 nM | 0.00119 s⁻¹ | 177000 M⁻¹ s⁻¹ | 1.9 ratio
9 | CD40L-24 (VHH) VHH: EVQLVESGGGLVQPGGSLRLSCAASGGAFSVYAMGWFRQAPGKEREFLASISGSGGSTYYADSVKGRFTISADNSKNTAYLQMNSLKPEDTAVYYCARDGGTYGMDVWGQGTLVTVSS | 5.74 nM | 0.000824 s⁻¹ | 143000 M⁻¹ s⁻¹ | 42.7 ratio
10 | CD40L-15 (VHH) VHH: EVQLVESGGGLVQPGGSLRLSCAASGFTFDDYDMGWFRQAPGKERELVASITSGGSTNYADSVKGRFTISADNSKNTAYLQMNSLKPEDTAVYYCAIPHGIDLYTFDWGQGTLVTVSS | 1.29 nM | 0.000384 s⁻¹ | 299000 M⁻¹ s⁻¹ | 29 ratio
11 | CD40L-22 (VHH) VHH: EVQLVESGGGLVQPGGSLRLSCAASGVTLDDYAMGWFRQAPGKERELVAAITNGGITTHYADSVKGRFTISADNSKNTAYLQMNSLKPEDTAVYYCAADVGPTVKWGQGTLVTVSS | 1.02 nM | 0.000394 s⁻¹ | 387000 M⁻¹ s⁻¹ | 47.6 ratio
12 | CD40L-16 (VHH) VHH: EVQLVESGGGLVQPGGSLRLSCAASGRIFSTYFMGWFRQAPGKEREWISTVYSNGHTYYADSVKGRFTISADNSKNTAYLQMNSLKPEDTAVYYCAAWLNGGNRWGQGTLVTVSS | 7.93 nM | 0.000278 s⁻¹ | 35100 M⁻¹ s⁻¹ | 47.8 ratio

Continued, values first:

Row | Kd (CD40L) | koff (CD40L) | kon (CD40L) | 100 nM FACS (MFI Ratio) [1] | Binder
13 | 0.749 nM | 0.000155 s⁻¹ | 207000 M⁻¹ s⁻¹ | 44.9 ratio | CD40L-27 (VHH) VHH: EVQLVESGGGLVQPGGSLRLSCAASGSISSIHAMGWFRQAPGKEREFIAVIYWRDGSSLYADSVKGRFTISADNSKNTAYLQMNSLKPEDTAVYYCAAEPYGSGSSLMSEYDWGQGTLVTVSS
14 | 4.04 nM | 0.000633 s⁻¹ | 157000 M⁻¹ s⁻¹ | 24.3 ratio | CD40L-30 (VHH) VHH: EVQLVESGGGLVQPGGSLRLSCAASGNIFRINAMGWFRQAPGKEREFVAVIYSSDGSTLYADSVKGRFTISADNSKNTAYLQMNSLKPEDTAVYYCAAEPYGSGSSLISEYDWGQGTLVTVSS
15 | 6.5 nM | 0.000581 s⁻¹ | 89300 M⁻¹ s⁻¹ | 18.5 ratio | CD40L-31 (VHH) VHH: EVQLVESGGGLVQPGGSLRLSCAASGFTFDDSDMGWFRQAPGKEREFVAVVNWSGSSESYADSVKGRFTISADNSKNTAYLQMNSLKPEDTAVYYCASDHYDTDTKSDVYNWGQGTLVTVSS
16 | 0.758 nM | 0.000399 s⁻¹ | 526000 M⁻¹ s⁻¹ | 100 ratio | CD40L-54 (VHH) VHH: EVQLVESGGGLVQPGGSLRLSCAASGFTFDDYDMGWFRQAPGKEREFVAAIAWTGTNSYYADSVKGRFTISADNSKNTAYLQMNSLKPEDTAVYYCASDHYDTDTKSDVYNWGQGTLVTVSS
17 | 0.272 nM | 6.18e-05 s⁻¹ | 227000 M⁻¹ s⁻¹ | 152 ratio | CD40L-32 (VHH) VHH: EVQLVESGGGLVQPGGSLRLSCAASGFGFGSYDMGWFRQAPGKEREFVAAIYSDGGSAYYADSVKGRFTISADNSKNTAYLQMNSLKPEDTAVYYCASDHYDTDTKSDVYNWGQGTLVTVSS
18 | 0.251 nM | 0.000173 s⁻¹ | 690000 M⁻¹ s⁻¹ | 83.8 ratio | CD40L-43 (VHH) VHH: EVQLVESGGGLVQPGGSLRLSCAASGFSLDDYDMGWFRQAPGKEREFVAVISWSGAYTEYADSVKGRFTISADNSKNTAYLQMNSLKPEDTAVYYCASDHYDTDTKSDVYNWGQGTLVTVSS
19 | 0.422 nM | 0.000208 s⁻¹ | 492000 M⁻¹ s⁻¹ | 68.4 ratio | CD40L-56 (VHH) VHH: EVQLVESGGGLVQPGGSLRLSCAASGFTLDHYDMGWFRQAPGKEREFVAVINWSGAYTEYADSVKGRFTISADNSKNTAYLQMNSLKPEDTAVYYCASDHYDTDTKSDVYNWGQGTLVTVSS
20 | 0.806 nM | 0.000319 s⁻¹ | 396000 M⁻¹ s⁻¹ | 74.2 ratio | CD40L-40 (VHH) VHH: EVQLVESGGGLVQPGGSLRLSCAASGFTFDDYDMGWFRQAPGKERELVAAISATGDDTYYADSVKGRFTISADNSKNTAYLQMNSLKPEDTAVYYCASDHYDTDTKSDVYNWGQGTLVTVSS
21 | 0.7 nM | 0.000577 s⁻¹ | 824000 M⁻¹ s⁻¹ | 131 ratio | CD40L-50 (VHH) VHH: EVQLVESGGGLVQPGGSLRLSCAASGFTFDDSDMGWFRQAPGKEREFVAAISMSGEDAAYADSVKGRFTISADNSKNTAYLQMNSLKPEDTAVYYCASDHYDTDTKSDVYNWGQGTLVTVSS
22 | 2.63 nM | 0.000546 s⁻¹ | 208000 M⁻¹ s⁻¹ | 74.1 ratio | CD40L-33 (VHH) VHH: EVQLVESGGGLVQPGGSLRLSCAASGNIFINNAMGWFRQAPGKEREFVASIEWDGGGAYYADSVKGRFTISADNSKNTAYLQMNSLKPEDTAVYYCARDGGTYGMDVWGQGTLVTVSS
23 | 1.27 nM | 0.000315 s⁻¹ | 248000 M⁻¹ s⁻¹ | 66.7 ratio | CD40L-59 (VHH) VHH: EVQLVESGGGLVQPGGSLRLSCAASGFTLDYYAMGWFRQAPGKERELVASISNGGLSTYYADSVKGRFTISADNSKNTAYLQMNSLKPEDTAVYYCAADVGPTVKWGQGTLVTVSS
24 | 53.8 nM | 0.00083 s⁻¹ | 15400 M⁻¹ s⁻¹ | 99.2 ratio | CD40L-21 (VHH) VHH: EVQLVESGGGLVQPGGSLRLSCAASGRIFSTYFMGWFRQAPGKEREFVAASYTGGSGGSTVYADSVKGRFTISADNSKNTAYLQMNSLKPEDTAVYYCAAWLNGGNRWGQGTLVTVSS
25 | 7.56 nM | 0.000453 s⁻¹ | 59900 M⁻¹ s⁻¹ | 91.9 ratio | CD40L-52 (VHH) VHH: EVQLVESGGGLVQPGGSLRLSCAASGRIFSTYFMGWFRQAPGKEREWVSTIYSNGTPAYADSVKGRFTISADNSKNTAYLQMNSLKPEDTAVYYCAAWLNGGNRWGQGTLVTVSS
